Laboratory results: the DeepSol protein solubility set

Assay: soluble on expression in E. coli; label from the status in PepcDB or PDB records

| Sequence | soluble on expression in E. coli |
| --- | --- |
| MSLTLLKGRRKVDTIKVGILGYGLSGSVFHGPLLDVLDEYQISKIMTSRTEEVKRDFPDAEVVHELEEITNDPAIELVIVTTPSGLHYEHTMACIQAGKHVVMEKPMTATAEEGETLKRAADEKGVLLSVYHNRRWDNDFLTIKKLISEGSLEDINTYQVSYNRYRPEVQARWREKEGTATGTLYDLGSHIIDQTLHLFGMPKAVTANVMAQRENAETVDYFHLTLDYGKLQAILYGGSIVPANGPRYQIHGKDSSFIKYGIDGQEDALRAGRKPEDDSWGADVPEFYGKLTTIRGSDKKTETIPSVNGSYLTYYRKIAESIREGAALPVTAEEGINVIRIIEAAMESSKEKRTIMLEHEGHHHHHH | soluble |
| MQQTTQIQPSFTLKTREGGVASADERADEVVIGVGPAFDKHQHHTLIDMPHGAILKELIAGVEEEGLHARVVRILRTSDVSFMAWDAANLSGSGIGIGIQSKGTTVIHQRDLLPLSNLELFSQAPLLTLETYRQIGKNAARYARKESPSPVPVVNDQMVRPKFMAKAALFHIKETKHVVQDAEPVTLHIDLVRE | soluble |
| MGSDKIHHHHHHMAFRGWKKLPIRIETGEMVEAIAPVIVSASRATDIPAFHAEWFMTRLRAGYVQWCNPFNARQTQYVSFRKTRAVIFWSKNPAPLLPHLSELDAIGINYSFQFTLNDYEAEGLEPYVLPLAKRIETFRRLASHIGPERVVWRFDPLVLTGRLTADMLLERIGRLAEALGGQTRKLVISFADIECYRAVRLRLSRMGAGAREFAPEEMDEFAARLVERNKDWGLELSACAEDSELAGIAKSRCIDGHVLASCFGDDAELMEFLGGSTLFPGDAPVSVALKHQGQRKACGCIVSKDIGVYGTCQHGCRYCYACR | not soluble |
| MSLRVTLREVAQEAGVSLKTASNVINHSGRMADATREKVQDVIDRLGYRVNVSARNLNRGKTGFITLAVPSLTAPYLAELANRVIDAARIYGYSVYITTYAEGSAQGARALLRNFNATVSDGMILSISEVEDLDPEDLDVDYPLVCVGARSTHGKADHVTPDDVQEARLAAQYLFDHGATNLAVIGSRTDPEHILELRDAVEGNAQLRMRGIFEACADQGVELDTRLVPNVGQDWTIGSGARMTQRIVDSGIPFDGIVAFNDQLALGALFTLAANGIAVPDRVQVIGFDNNEEAAYFQPPLTTMDSCLDWIAPTAVSRIINRIDGSRTLEPELITTQSRIIARATTRAEGHHHHHH | soluble |
| MIQKGCTPIEEGSDSEPQAETVPEEADYEAVPVEAYGLAMLRGMGWKPGKGIGNTFSQVVKPRVNSIRPKGLGLGANRMEAQDLASVGSHHPPRPDGDRENDKEGQPQGLMHGRAVVVLSGPYRGLYGKVEGLDPDNVRAMVRLAVGNRIVTVSEYCLRPVSQQEFDSHTSKPGHVSQTSTEQQNRATGTASSLKAAQNQEDSKRRQKGSEKKRKHSPDRQDGPVPKTEKAAPRNKHWLHRDLRVRFIDKLHKSGRYYNTKMTIEDVLSPDTCVCRTDEGRVLEDVREDMLETLIPKGEGHRVMVVLGPHAGKVGLLRSRDRAQSHALVQLRRENQVVELHYNAICQYMGPGDSDED | soluble |
| MSDLADNAIDAARQENVARILEAAERLFRHYGYAKTNVADIARELDMSPANIYRFFASKTEIHQTLCLRMLGASYQQALEIAHLPLSASERLRRYALGQHKLTVETMLDEQKVHEMVVVAIERDWHVIEKHISRLDDLLAGIIREGIEAGEFADVDPAVAARCFGASLVTLCHPQIVAQCLAKENRATPDELVEFAIRALKK | soluble |
| MGSDKIHHHHHHMIIGGLYMKFFEENYSQEIPTRIKNLRKKHNITQSELGNAGQVSQVESGKRPITSSMLVYLNALTASNYTYIVFGELDEFIENLFHYFFSSILYRDLEAVDENLYSFMSDDLISIQSSCLSIAKTFANFNIQRKRFMISTETEMDTFHKKDDIDVWVGGKSYNPARSFRNNPINELTVIDFEEMADILLLMLRDNLIRSFEINVCNTLFELDKNGEPTTFNLDKIDSIINKWWSENVSTEIIPNLIKKLRENPLFNIGFMVNDILERMYKEDIPKSYLTSVPLVISKKARSTLSIKSNGSQKIDKSKFAQILSL | not soluble |
| MGSDKIHHHHHHMDYRMCWLEYRGLPADVAGKLKDWFSSVSILEPGSSVLKDEIRRFSERSIGITPRFYSRPLKKEKYIMVGRLESLPIKLDVNLGEEGFMLRTIEWNGSKILLVTGETKKALVYGIFDLMKRIRLGEDIEKMNVLAKPKAKFRMLNHWDNLDGTIERGYAGNSIFFKDNRIIINQRTKDYARLLASIGINGVVINNVNVKKREVYLIDSIYLKKLKKLADIFREYGIKIYLSINFASPVYLGGLDTADPLDERVARWWREKARGIYDYIPDFGGFLVKADSEFNPGPHMFGRTHAEGANMLARALAPFGGVVIWRAFVYNCLQDWRDYKTDRAKAAYDNFKPLDGQFDDNVIIQIKYGPMDFQVREPVNPLFGGMEKTNQILELQITQEYTGQQIHLCFLGTLWKEILEFDTFAKGEGSYVKRIVDGTLFDRENNGFAGVSNVGDSVNWTGHDLAQANLYAFGRLAWNPDEEIERIVEEWIKLTFGDDEKVLENVSYMLMKSHRTYEKYTTPFGLGWMVNPGHHYGPNPEGYEYSKWGTYHRANWEAIGVDRTSRGTGYTLQYHSPWKEIYDDINTCPEDLLLFFHRVRYDHRLKSGKTLLQTMYDLHFEGVEEVEEFIKKWEELKDRVSPDIFERVKERLHMQLEHAKEWRDVINTYFYRRTGIPDEKGRKIYP | not soluble |
| MSLEIERYIVPKETWPEIIIPVEVQEYIGERKELNLAEELLDRNIREGRGRKVAVYFEDRRVTYRDLYRLSNKIANFLVGIGVQPYDRVGFRTRNMPEAIAVNFGIMKAGAIPVPLNPMWAGKEVSFVSNNAEIKALFVSGDERVFPAVNEVKDEIKTAKAMVVMDGEKEGFIPFSEVTAESAKFDPILLKIGTPALILYTSGTTGLPKGCVHFVENVISSVYLVGKHVWKLTPDDVVGGPAPVSFAMGYGNGCLIPYFHGAAASIWPRFSVENFFKYVEEHGITVFSSLPTSYRMILADPKLEEYMNKYDISSLRLFTGGGEALGAETAKRWKEVFGMDIYESLGATEMLHICIANACAPKPVAGSIGFPVPGYIAKIVDPETGKECGADEVGSLYIKGPTGIRYWNHPSRDLSEKQAKSVKNGWNVLGDFVRKDENGYIYFVSRDDDLIKSSGYRIGPDEIEQPLNTHPAVAECAVIGVPDPEGIRGQVVKAIIRLKEGYTPDEKLKEDILAFLEKHIAKYKLPRIIEFTDKPLPRTPTGKLLRRLLKQSEGHHHHHH | not soluble |
| MNNKLKTQAVEQLFQAILSLKDLDEAYDFFEDVCTINEILSLSQRFEVAKMLREHRTYLDIAEKTGASTATISRVNRSLNYGNDGYDRVFERLGMLEKESEDNK | soluble |
| MAALTASCIDLNIQGNGAYSVLKQLATIALQNGFITDSHQFLQTLLLREKMHSTGFGSGVAVPHGKSACVKQPFVLFARKAQAIDWKASDGEDVNCWICLGVPQSGEEDQVKIIGTLCRKIIHQEFIHQLQQGDTDQVLALLNQTLSS | not soluble |
| QMEEGFVCFKLLYDVKKNRISIDDAVAENGVLPLMKHISWQFDKLPHMLIAGGTGGGKTYFMLTIIKACVGLGADVRILDPKNADLADLEEVLPKKVYSQKNGILMCLRKSVDGMMERMDEMKQMSNYKTGENYAYLGLKPVFIFFDEYVAFMDLLDMKERNEALSYMKQLVMLGRQAGYFLVLGAQRPDA | not soluble |
| MGSDKIHHHHHHMNPIQHILDTYPLIVLDGAMATELERKGCNLNDSLWSAKILMEEPELIKQVHTDYFAAGADCAITASYQSTFEGFAARGLSEAEARRLIELSVSIAAEARDEFWSLEENRLNRPKPIIAASIGPYGAYLADGSEYRGNYAISEDELIEFHRPRMKALIEAGADVLACETIPCLTEAKAIVRLLKEFPETYAWISFSAKDGLHISDGTPAADCASWLDEHRQIAALGINCTPLQHIPSLIEELKKNTSKPIIVYPNSGEQYDPETKTWNGAACAESYGASARTWHEKGARLIGGCCRTKPENIQEIAAWARSLKTT | not soluble |
| MTKTWEQLSAIQPIGVKMLMNSIAKERISHAYLLEGEKGTGKFATAIQMAKSFLCSQRNRVEPCHVCTNCKRIDSGNHPNLHIVKPDGLSIKKQQIHDLQEEFSKTGLEANKKVYIIEHADRMTANAANALLKFLEEPSSDTTAILLTEQSHQILNTILSRCQVVTFRPLPTESLIRRLQDEGITVSLSTLAAQLTNSFDEALTLCNDEWFAQARALVIKLCEALEKDKASIFFVQEKWGKHFGEKEQLQQGLDMLLLIYKDLLYVQLGEEDRLVFREQKEMFESFSYAQKRIVSALFNILEAKNRINANVNAQLVFEQLVLRLQEG | not soluble |
| SNAMATKLVIAIVQDKDANYLSDQFIDQNVRATKLSTTGGFLQSGNTTFMIGIEEERVPEVLEIIKKASHTREEFMTPSVNMDVNMEGTTAYPIKVQVGGATVLVLPVDQFERF | soluble |
| MGSDKIHHHHHHMEFIPPKRLLELIRQYSTTFENWHSVMLSIYLHKERIKCKLRNGQLLYLKPNEIVLLAGLKIVELNEDSVRFQFNGREICLKGWKLSYPGDSFSDYWRIDVRGKRVLDIGAGIGDSPIYFSIAGAKEVVAVEVDSKKVELMRENLKANSINNVIVVDKGVGIKDDENYISWPKLISNYGPFDVAKIDCDGCEKIIVPYIKEIPSLLIEWDYNYKDIVSNLTKNGYKVKVEHTLKNLGFIYAKKR | not soluble |
| MDQKREALVGPITSSPASILELSIFYEFLKAQWCAFTIGSSEPPISPRQLNLLSLLIGPSNSDQEIPRDTVAVSWVYVGFEFGESCEQFGATDEQLRGHFEYQMICTNVQCIYFVEDGKKRRMAGVTWYLRNDEKSKNHEDYNMIAIYETIREKRFEEVQKIRKLEKEEALRRGGWLGEPTDEYTSTIFSHLKLLTLKDGRLAVFACNADGEEEKFAFNERTERYEVLEDVVEVEDRPSNYLLRII | not soluble |
| MKSLETMARYKKELTECARNLKLPFLAEHLDEILHEAQEKQQTYSEFLSTCLMRELRDKERRSYLTRLKFAGLPARYDLDLYDFSRTEGIDQRQMRELRELVWIRRTYNLLLVGDSGTGKTFIASGLIHEAVKAGYKAYLLTLEELFVCLKTKEISRPAMKTYKRIMKAQLLAIDDVTLFPLKGEDVLLLFKLVNCVQGKTSLIITASRDLTGWLEMAGDEVCAAALLDRLLYCCEIIRLSGKSYRMENRKTIFSNQQIGTASLEHHHHHH | not soluble |
| SPLHVSLANGNRDLDYDSVQPYFMCDDEEEDVHHQQPPQPPAPSEDIWKKFELLPTPRPSPGHAGLYSPPCEAVAVSFAPRDHDGDSFSIADLPELPGGDAVKQSFVCDPDDETFVKNIILQDCMWNGFSASAKLVSKLDPYQAVRKEGTGVSLAADVEPATPPDCTCNT | soluble |
| MHTILILGAGPAGAAVALGLRRLGYPVTLVSDWRRFPALEGVSLRVLEALRGAGLEQALAQALQPSQRRVAWNGAEHAQNIEYLLDRPAFDRGLREALREAQVKLIEGRVLGVQSSEAGHRVQVQGQGEVRGEFLVEARGRQAPVLDKALRQGGGKGLRGPETVSLLNRWQGPGGSATSAVHSLEDGWAWMARREDGQCYWQLTLDVESAGLPGKAQLLEYCRQRRLGSAMAREFFAGGQEQQLHLHARSSTAILNPQACGANWLRVGDAAMAVDPLSGNGIFQSLSSALQAPAVINTLLQQPQRAALAQRFHGQRVEQLFLRFARIGRDFYADEQRWPEQPFWQARRQWPDCQPAHIAVDFSALRIERAPVLRDGLVDEAEVVITPDQPLGIWHVQGVELAPLLRRLRSQGAAQALAQLSPDQNRLIRSWLLAQGYRPLEHHHHHH | not soluble |
| MRRDYMSVYDYPVPTTPWLNTAPGLFIDDYTSTASSTVSSLSRTLIYDYEQNPDSGNNVVALAAKAGYSTWWISNQGKLGEHDTRISVIASDAEHATFLKKGSFASRKTDDKLLLQETERALADTSSPKIIFLHMMGSHPNPCDSLNSLEHHHHHH | not soluble |
